This passage reports specific lysis of the CD33+-Hek293T cells (51Cr release assay, 20-hour in vitro culture) and Kd results from US20120251554A1 (TECHNISCHE UNIVERSIT T DRESDEN, published 2012).

In assay [1] the target is T1, human CD33 (human, UniProt P20138 18-364).
T1 construct: whole, on cells; also called CD33+-Hek293T cells; Hek293T-CD33
The experiment in a line: cell-based or functional assay.

Assay [2] deals with T1, human CD33. Description: method not stated (sentence refers to FIG. 3, flow cytometry).

T1 sequence (P20138 18-364): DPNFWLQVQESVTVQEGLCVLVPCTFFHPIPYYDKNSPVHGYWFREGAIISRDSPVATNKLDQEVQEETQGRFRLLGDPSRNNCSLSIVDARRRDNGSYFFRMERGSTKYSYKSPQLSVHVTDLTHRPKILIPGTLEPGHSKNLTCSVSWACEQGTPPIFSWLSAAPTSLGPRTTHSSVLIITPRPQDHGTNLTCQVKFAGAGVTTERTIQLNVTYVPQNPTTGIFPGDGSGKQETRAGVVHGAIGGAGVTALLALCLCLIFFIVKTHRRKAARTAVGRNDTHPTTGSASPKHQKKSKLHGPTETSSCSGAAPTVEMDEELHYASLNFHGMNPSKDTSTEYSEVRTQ

B1: CD33-L18-GFP-L18-CD3 (bispecific antibody, part only; not given: anti-CD3 scFv, GFP, linkers, not shown: small tags and cut ends; large carriers)
chain, part: EVKLQESGPELVKPGASVKMSCKASGYKFTDYVVHWLKQKPGQGLEWIGYINPYNDGTKYNEKFKGKATLTSDKSSSTAYMEVSSLTSEDSAVYYCARDYRYEVYGMDYWGQGTSVTVSSDIVLTQSPTIMSASPGERVTMTCTASSSVNYIHWYQQKSGDSPKRWIFDTSKVASGVPARFSGSGSGTSYSLTISTMEAEDAATYYCQQWRSYPLTFGDGTRLELKRADAAPTVS
In the assay with human CD33 [1], B1 returned a specific lysis of the CD33+-Hek293T cells (51Cr release assay, 20-hour in vitro culture) of under 86%.

B2: anti-CD33DRB2 (antibody, V domains shown)
VH: EVKLQESGPELVKPGASVKMSCKASGYKFTDYVVHWLKQKPGQGLEWIGYINPYNDGTKYNEKFKGKATLTSDKSSSTAYMEVSSLTSEDSAVYYCARDYRYEVYGMDYWGQGTSVTVSS
VL: DIVLTQSPTIMSASPGERVTMTCTASSSVNYIHWYQQKSGDSPKRWIFDTSKVASGVPARFSGSGSGTSYSLTISTMEAEDAATYYCQQWRSYPLTFGDGTRLELKR
notes: Murine monoclonal antibody from a hybridoma; also called monoclonal anti-CD33DRB2; anti-CD33DRB antibody
As usually defined, the Kd is the free concentration of one partner at which half of the binding sites on the other are occupied at equilibrium, for simple one-to-one binding. The low end stands for a tighter complex, the high end for a looser complex. Molecule B2 showed a Kd with human CD33 [2] of about 0.1 nM.

B3: anti-CD33DRB1 (antibody, V domains shown)
VH: EVKLQESGAELVRPGVSVKISCKGSGYTFTDYVLHWVKQSHAKSLEWIGLINTYNGDVRYNQKFMGKATMTIEKSSSTAYMELVRLTSEDSAIYYCARDYRYEYYAMDYWGQGTSVTVSS
VL: DIVLTQSPAIMSASPGEKVTMTCSANSSVSYIHWYQQKSGTSPKRWIFDTSKLASGVPARFSGSGSGTSYSLTISTMEAEDAATYYCQQWTSHPLTFGTGTKLQLKR
notes: Murine monoclonal antibody from a hybridoma (tested as hybridoma supernatant); also called monoclonal anti-CD33DRB1; anti-CD33DRB antibody
In the assay with human CD33 [2], B3 yielded a Kd of about 0.1 nM.
